B1: pBZR1^169−184 peptide (peptide)
peptide: RISN[pS]CPV[pT]PPVSSPT
notes: also called extended BZR1 linear motif; source: synthetic peptide (Peptide Specialty Laboratories)
B2: pBRI1^869−874 peptide (peptide)
peptide: RKL[pT]FA
notes: BRI1, Arabidopsis thaliana, residues 869-874, N-lobe of the kinase domain; also called RKLpTFA; source: synthetic peptide (Peptide Specialty Laboratories)
B3: Arabidopsis 14-3-3 lambda (At14-3-3-λ^1−248) (natural protein, Arabidopsis thaliana, UniProt P48349 1-248, looked up)
chain: MAATLGRDQYVYMAKLAEQAERYEEMVQFMEQLVTGATPAEELTVEERNLLSVAYKNVIGSLRAAWRIVSSIEQKEESRKNDEHVSLVKDYRSKVESELSSVCSGILKLLDSHLIPSAGASESKVFYLKMKGDYHRYMAEFKSGDERKTAAEDTMLAYKAAQDIAAADMAPTHPIRLGLALNFSVFYYEILNSSDKACNMAKQAFEEAIAELDTLGEESYKDSTLIMQLLRDNLTLWTSDMQEQMDEA
notes: 14-3-3 lambda (GRF6), Arabidopsis thaliana, full length, residues 1-248; The ITC text names 14-3-3λ without limits; a truncated 1-240 construct was also cloned; not shown: thioredoxin A, N-terminal, cleaved; 8xHis, N-terminal, cleaved; StrepII, N-terminal, cleaved
B4: 14-3-3 λ^R136L/Y137F (natural protein, Arabidopsis thaliana, UniProt P48349 1-248, looked up)
chain: B3 chain with R136L, Y137F
notes: 14-3-3 lambda (GRF6), Arabidopsis thaliana, with R136L and Y137F; also called 14-3-3λ Arg136→Leu/Tyr137→ Phe double mutant; source: E. coli BL21 (DE3) RIL, purified using the same protocol as the wild type; not shown: thioredoxin A, N-terminal, cleaved; 8xHis, N-terminal, cleaved; StrepII, N-terminal, cleaved
B5: pBKI1^265−272 peptide (peptide)
peptide: RGELF[pS]AP
notes: also called RGELFpSAP; source: synthetic peptide (Peptide Specialty Laboratories)
B6: pBZR1^169−175 peptide (peptide)
peptide: RISN[pS]AP
notes: also called RISNpSAP; source: synthetic peptide (Peptide Specialty Laboratories)
B7: C-terminal truncated At14-3-3-ω^1−237 (domain or fragment, Arabidopsis thaliana, UniProt Q01525 1-237, looked up)
chain: MASGREEFVYMAKLAEQAERYEEMVEFMEKVSAAVDGDELTVEERNLLSVAYKNVIGARRASWRIISSIEQKEESRGNDDHVTAIREYRSKIETELSGICDGILKLLDSRLIPAAASGDSKVFYLKMKGDYHRYLAEFKTGQERKDAAEHTLAAYKSAQDIANAELAPTHPIRLGLALNFSVFYYEILNSPDRACNLAKQAFDEAIAELDTLGEESYKDSTLIMQLLRDNLTLWTSD
notes: 14-3-3 omega (GRF2), Arabidopsis thaliana, residues 1-237; also called truncated 14-3-3 ω; not shown: thioredoxin A, N-terminal, cleaved; 8xHis, N-terminal, cleaved; StrepII, N-terminal, cleaved
B8: Arabidopsis 14-3-3 omega, full length (At14-3-3-ω^1−259) (natural protein, Arabidopsis thaliana, UniProt Q01525 1-259, looked up)
chain: MASGREEFVYMAKLAEQAERYEEMVEFMEKVSAAVDGDELTVEERNLLSVAYKNVIGARRASWRIISSIEQKEESRGNDDHVTAIREYRSKIETELSGICDGILKLLDSRLIPAAASGDSKVFYLKMKGDYHRYLAEFKTGQERKDAAEHTLAAYKSAQDIANAELAPTHPIRLGLALNFSVFYYEILNSPDRACNLAKQAFDEAIAELDTLGEESYKDSTLIMQLLRDNLTLWTSDMQDDAADEIKEAAAPKPTEEQQ
notes: 14-3-3 omega (GRF2), Arabidopsis thaliana, full length, residues 1-259; ITC and SEC-RALS name 14-3-3 ω without limits; not shown: thioredoxin A, N-terminal, cleaved; 8xHis, N-terminal, cleaved; StrepII, N-terminal, cleaved

Data set [1] addresses B8. The experiment in a line: crystal structure; co-crystallisation of 14-3-3 with 1-3 mM phosphopeptide; molecular replacement. Particulars: both partners purified.
Data set [2] addresses T1, Arabidopsis 14-3-3 isoform kappa (At14-3-3-κ^1−248) (Arabidopsis thaliana, UniProt P48348 1-248).
T1 construct: 14-3-3 kappa (GRF8), Arabidopsis thaliana, full length, residues 1-248; The ITC text names 14-3-3κ without limits; a truncated 1-240 construct was also cloned; not shown: thioredoxin A, N-terminal, cleaved; 8xHis, N-terminal, cleaved; StrepII, N-terminal, cleaved
T1 sequence (looked up): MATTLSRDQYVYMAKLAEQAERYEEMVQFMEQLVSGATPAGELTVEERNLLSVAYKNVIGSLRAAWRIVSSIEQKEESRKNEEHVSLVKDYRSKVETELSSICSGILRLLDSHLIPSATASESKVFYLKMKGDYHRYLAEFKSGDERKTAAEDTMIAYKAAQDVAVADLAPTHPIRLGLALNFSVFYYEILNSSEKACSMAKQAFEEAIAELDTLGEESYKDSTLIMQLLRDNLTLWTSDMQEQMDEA
Nature of the data set: ITC; Nano ITC, 25°C, 25 mM Hepes pH 7.0, 50 mM KCl; 600 μM peptide or phosphopeptide injected into 50 μM 14-3-3 protein in the cell, 25 injections. The note with it: both partners purified.

A further data set has as its target T2, At14-3-3 λ^N233A (Arabidopsis thaliana, UniProt P48349 1-248, N233A).
T2 construct: 14-3-3 lambda (GRF6), Arabidopsis thaliana, with N233A; also called 14-3-3λ Asn233→ Ala mutant; source: E. coli BL21 (DE3) RIL, purified using the same protocol as the wild type; not shown: thioredoxin A, N-terminal, cleaved; 8xHis, N-terminal, cleaved; StrepII, N-terminal, cleaved
T2 sequence (looked up): B3 chain with N233A
Described as above. The note with it: both partners purified.

Data set [3] deals with the molecule itself. The experiment in a line: crystal structure; co-crystallisation of 14-3-3 with 1-3 mM phosphopeptide; molecular replacement.
Data set [4] concerns the molecule itself. Nature of the data set: SEC; analytical, Superdex 200 increase 10/300 GL, 25 mM Hepes pH 7.0, 50 mM KCl; 500 μl of protein at 2.0 mg/ml. (In gel filtration, larger molecules generally elute earlier.)
Data set [5] addresses B7. Nature of the data set: crystal structure; co-crystallisation of 14-3-3 with 1-3 mM phosphopeptide; molecular replacement. The note with it: both partners purified.
For data set [6], the target named is B8. The experiment in a line: ITC; Nano ITC, 25°C, 25 mM Hepes pH 7.0, 50 mM KCl; 600 μM peptide or phosphopeptide injected into 50 μM 14-3-3 protein in the cell, 25 injections. The note with it: both partners purified.
In data set [7] the target is B3. The description is as above. Particulars: both partners purified.

The source of these data is PMC11558545, “Mechanistic Insights into the Function of 14-3-3 Proteins as Negative Regulators of Brassinosteroid Signaling in Arabidopsis” (Plant and Cell Physiology, 2024).

Positions count from the first letter of the chain named. Numbers in names are those of the source. Square brackets hold non-standard residues; d marks the D form. Ends that are not written are not given here. pT = C[C@@H](OP(=O)(O)O)[C@H](N)C(=O)O; pS = N[C@@H](COP(=O)(O)O)C(=O)O

For orientation: stoichiometry N means the number of molecules, sites or subunits per partner or assembly. In the case of B1, in data set [1], the binding result is listed as “binds”. Besides, in data set [2], the “fold reduction of binding against the BZR1^169−175 motif” value is about 10 fold and the “stoichiometry N” value was about 1.
As to B2, the “fold reduction of interaction by the N233A mutation” value with At14-3-3 λ^N233A was about 2 fold.
For B3, the binding result in data set [3] is listed as “binds”.
For the molecule B4, the “stoichiometry N” value in data set [4] was determined as 2.
In the case of B5, the binding result (in data set [5]; with At14-3-3 λ^N233A; in data set [6]; in data set [7]) was “binds” throughout.
Take B6: the binding result in data set [5] and in data set [7] was “binds” in each case. Further, in the data set with At14-3-3 λ^N233A, the “fold reduction of interaction by the N233A mutation” value is about 5 fold.
With B7, the binding result in data set [3] was “binds”.
As for B8, the binding result in data set [3] was “binds”.
